In US6965850B2, “Methods for modulating nuclear receptor coactivator binding” (The Regents of the University of California, priority 1998, dated 2005):
Ends that are not written are not given here.

Tests used:
hTRβ LBD [1] = biological target: T1, hTRβ LBD (Homo sapiens, UniProt P10828); assay: Peptide competition of GRIP1 (563-767) interaction with hTRβ LBD; type: binding; design: made in house; host or cells: TR LBD: in vitro translation (reticulocyte lysate); GST-GRIP1 fragment: E. coli HB101
T1 sequence (P10828 202-461): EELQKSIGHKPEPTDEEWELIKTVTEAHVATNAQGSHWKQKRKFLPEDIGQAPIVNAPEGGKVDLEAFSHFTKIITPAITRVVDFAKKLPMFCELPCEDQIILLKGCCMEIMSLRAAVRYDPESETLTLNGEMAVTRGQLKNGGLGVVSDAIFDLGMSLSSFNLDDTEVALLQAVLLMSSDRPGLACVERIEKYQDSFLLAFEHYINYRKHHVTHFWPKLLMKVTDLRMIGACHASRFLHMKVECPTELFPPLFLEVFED
Method: (§1) For in vitro binding studies GR, TR and their derivatives were translated in the presence of [^35S]methionine using the TNT Coupled Reticulocyte System (Promega). Separate translations were performed in the presence and absence of 10 μM dexamethasone or 1 μM RU486 for GR and 10 μM triiodothyronine for TR. Expression was quantified by phosphoimager analysis (BAS2000, Fuji). For all binding assays 50 μl of a 20% bead suspension containing either 1.6 or 4.0 μM bound purified GST GRIP1 fragment (either 568-767 or 563-1121) was incubated with 0.2 μl or 1.4 μl in vitro transcribed and translated TR or GR, respectively. Binding was performed in the binding buffer described above supplemented with 20 μg/ml BSA and appropriate hormone. The chosen GST GRIP1 fragment concentrations were sufficient to bind either 70 or 100% of the TR derivatives. The reaction was incubated at 4° C. under rotation for 2 hours. In case of competition experiments, the appropriate concentration of peptides were added to the reaction before addition of receptors. However, no differences in the results were noted by adding the peptides after half of the incubation of the GST GRIP1 fragment with nuclear receptors. […] Beads were washed five times with 200 μl binding buffer+BSA at 4° C. before elution of the bound proteins in 20 μl SDS loading buffer. Eluted beads and input labeled protein were subjected to SDS-PAGE. The fraction of bound nuclear receptors was determined by phosphoimager analysis.

hERα-LBD = biological target: T2, hERα-LBD (Homo sapiens, UniProt P03372); assay: Electrophoretic mobility shift assay with purified hERα-LBD; type: binding; conditions: 2-fold or 10-fold molar excess of peptide, 6% native PAGE
T2 construct: made in house; host or cells: E. coli BL21(DE3)pLysS
T2 sequence (P03372 297-554): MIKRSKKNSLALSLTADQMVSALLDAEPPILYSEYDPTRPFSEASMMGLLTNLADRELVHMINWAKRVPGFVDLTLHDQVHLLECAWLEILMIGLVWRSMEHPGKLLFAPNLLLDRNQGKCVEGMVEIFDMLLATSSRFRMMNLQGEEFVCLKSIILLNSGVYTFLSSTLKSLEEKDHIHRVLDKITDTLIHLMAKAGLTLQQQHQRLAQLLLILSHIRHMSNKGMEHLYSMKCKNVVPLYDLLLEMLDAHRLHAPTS
Method: An electrophoretic mobility shift assay was used to directly assess the ability of the NR-box 2 peptide to bind the purified ERα LBD in the presence of either DES or OHT. Eight microgram samples of purified hERα-LBD bound to either DES or OHT were incubated in the absence of the peptide, i.e., buffer alone, or in the presence of either a 2-fold or 10-fold molar excess of the GRIP1 NR-box 2 peptide. The binding reactions were performed on ice for 45 minutes in 10 μl of buffer containing 20 mM Tris, pH 8.1, 1 mM DTT, and 200 mM NaCl and then subjected to 6% native PAGE. Gels were stained with GELCODE Blue Stain reagent (Pierce).

hTRβ LBD [2] = biological target: T1, hTRβ LBD; assay: GST-GRIP1 fragment pull-down of TR; type: binding; design: made in house; host or cells: in vitro translation (TNT Coupled Reticulocyte System, Promega)
Method: For in vitro binding studies GR, TR and their derivatives were translated in the presence of [^35S]methionine using the TNT Coupled Reticulocyte System (Promega). Separate translations were performed in the presence and absence of 10 μM dexamethasone or 1 μM RU486 for GR and 10 μM triiodothyronine for TR. Expression was quantified by phosphoimager analysis (BAS2000, Fuji). For all binding assays 50 μl of a 20% bead suspension containing either 1.6 or 4.0 μM bound purified GST GRIP1 fragment (either 568-767 or 563-1121) was incubated with 0.2 μl or 1.4 μl in vitro transcribed and translated TR or GR, respectively. Binding was performed in the binding buffer described above supplemented with 20 μg/ml BSA and appropriate hormone. The chosen GST GRIP1 fragment concentrations were sufficient to bind either 70 or 100% of the TR derivatives. The reaction was incubated at 4° C. under rotation for 2 hours. In case of competition experiments, the appropriate concentration of peptides were added to the reaction before addition of receptors. However, no differences in the results were noted by adding the peptides after half of the incubation of the GST GRIP1 fragment with nuclear receptors. […] The fraction of bound nuclear receptors was determined by phosphoimager analysis.

GR = assay: GST-GRIP1 fragment pull-down of GR; type: binding
Method: as §1

MDM2 = MDM2 (Homo sapiens, UniProt Q00987); assay: GRIP1 interaction with MDM2; type: binding; conditions: data not shown
hERα V376R mutant = biological target: T3, hERα V376R mutant (Homo sapiens, UniProt P03372, V376R); assay: In vitro binding of [35S]-labeled hERα mutant to GST-GRIP1; conditions: percentage of WT hERα
T3 construct: expression vector encoding full-length hERα, pSG5-er HEGO (WT or mutants); made in house; host or cells: hERα: in vitro translation implied by the [35S] label; GST-GRIP1: E. coli HB101
T3 sequence (P03372 1-595 V376R): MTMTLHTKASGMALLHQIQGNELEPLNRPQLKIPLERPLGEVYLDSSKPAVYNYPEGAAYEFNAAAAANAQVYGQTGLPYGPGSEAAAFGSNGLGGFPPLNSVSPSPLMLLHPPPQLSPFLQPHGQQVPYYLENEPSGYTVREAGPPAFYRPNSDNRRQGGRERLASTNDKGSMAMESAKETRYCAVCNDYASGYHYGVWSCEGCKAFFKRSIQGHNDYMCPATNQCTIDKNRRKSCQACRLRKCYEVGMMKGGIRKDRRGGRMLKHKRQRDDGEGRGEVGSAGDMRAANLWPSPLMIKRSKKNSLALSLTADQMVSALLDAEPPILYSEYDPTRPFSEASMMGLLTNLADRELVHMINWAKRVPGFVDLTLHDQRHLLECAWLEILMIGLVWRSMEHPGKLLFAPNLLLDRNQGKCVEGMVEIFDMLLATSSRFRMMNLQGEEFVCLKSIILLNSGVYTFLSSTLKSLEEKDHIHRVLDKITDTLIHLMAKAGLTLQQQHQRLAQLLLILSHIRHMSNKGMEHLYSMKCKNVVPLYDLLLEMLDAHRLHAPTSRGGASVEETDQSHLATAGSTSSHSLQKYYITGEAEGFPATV
Method: Beads were washed 3 times with 1 ml of binding buffer and the bound proteins were separated using 10% SDS-PAGE and visualized by autoradiography. Binding was quantitated by phosphorimaging using ImageQuant (Molecular Dynamics).

TAFII31 = biological target: T4, TAFII31 (Homo sapiens, UniProt Q16594); assay: GRIP1 interaction with TAFII31; type: binding; conditions: data not shown
T4 sequence (Q16594 1-264): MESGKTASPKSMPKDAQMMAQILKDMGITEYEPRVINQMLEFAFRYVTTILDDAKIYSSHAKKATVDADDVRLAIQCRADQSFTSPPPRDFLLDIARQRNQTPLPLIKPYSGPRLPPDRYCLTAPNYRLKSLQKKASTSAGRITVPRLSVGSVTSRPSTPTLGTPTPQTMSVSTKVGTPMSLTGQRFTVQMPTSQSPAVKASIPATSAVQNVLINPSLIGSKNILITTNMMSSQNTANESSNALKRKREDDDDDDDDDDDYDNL

Chain of MDM2 (Q00987 whole entry, species assumed): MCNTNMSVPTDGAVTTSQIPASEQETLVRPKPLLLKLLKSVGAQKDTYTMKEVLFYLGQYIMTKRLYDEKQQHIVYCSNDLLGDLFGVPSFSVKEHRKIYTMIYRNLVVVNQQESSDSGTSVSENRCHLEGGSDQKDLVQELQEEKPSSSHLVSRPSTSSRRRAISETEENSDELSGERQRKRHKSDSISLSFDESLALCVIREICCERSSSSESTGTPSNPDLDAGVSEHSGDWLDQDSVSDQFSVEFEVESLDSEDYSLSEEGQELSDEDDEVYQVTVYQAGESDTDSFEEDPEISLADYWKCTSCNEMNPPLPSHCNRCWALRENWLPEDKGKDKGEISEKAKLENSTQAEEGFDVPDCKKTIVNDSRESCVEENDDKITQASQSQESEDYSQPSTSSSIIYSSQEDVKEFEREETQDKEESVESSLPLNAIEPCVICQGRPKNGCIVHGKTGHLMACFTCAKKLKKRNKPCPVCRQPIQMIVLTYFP

Molecule: ILHRLL (MUTAGEN (15)..(15) Ile --> Ala; listed as Homo sapiens) [peptide consisting of the NR-box 2]
- competition with TR LBD interaction with GRIP1 (563-767) (hTRβ LBD [1]): does not sufficiently compete

Molecule: TSLKEKHKLLRYLLQDSS
- competition with TR LBD interaction with GRIP1 (563-767) (hTRβ LBD [1]): binds like a NR-box 2 peptide

Molecule: LLRYLL (listed as Homo sapiens) [minimal motif of NR-box 3]
- competition with TR LBD interaction with GRIP1 (563-767) (hTRβ LBD [1]): does not compete

Molecule: 686-KHKILHRLLQDSS-698 (not fully specified; printed as 686-KHKILHRLLQDSS-698; listed as Homo sapiens) [GRIP1 NR-box 2 peptide]
- migration of DES-hERα-LBD complex in presence of peptide (hERα-LBD): retarded
- mobility of OHT-hERα-LBD complex on peptide addition (hERα-LBD): no effect

Molecule: NR-box 3: GST-GRIP1 (563-767) with hydrophobic residues of NR-box 2 replaced with alanine; NR-box 3 functional (ENALLRYLLDKDD)
- loss of TR binding (hTRβ LBD [2]; hydrophobic residues of the NR-box replaced with alanine): about 50%
- binding of GR to GRIP1 fragment (GR): binds most strongly

Molecule: TSLKEKHKILHRLLQDS
- competition with TR LBD interaction with GRIP1 (563-767) (hTRβ LBD [1]): increased affinity

Molecule: PKKKENALLRYLLDKDDTKD
- competition with TR LBD interaction with GRIP1 (563-767) (hTRβ LBD [1]): increased affinity

Molecule: KENALLRYLLDKDDTKD
- competition with TR LBD interaction with GRIP1 (563-767) (hTRβ LBD [1]): increased affinity

B1: GRIP1: mouse p160 coactivator protein (protein)
chain: QNSPVNMNPPPLSKMGSLDSKDCFGLYGEPSEGTTGQAEASCHPEEQKGPNDSSMPQAASGDRAEGHSRLHDSKGQTKLLQLLTTKSDQMEPSPLPSSLSDTNKDSTGSLPGPGSTHGTSLKEKHKILHRLLQDSSSPVDLAKLTAEATGKELSQESSSTAPGSEVTVKQEPASPKKKENALLRYLLDKDDTKDIGLPEITPKLE
- interaction with MDM2 (MDM2): no interaction was detected
- residual GRIP1 binding (hERα V376R mutant): 10%
- interaction with TAFII31 (TAFII31): no interaction was detected

B2: GRIP1 (563-767): fragment of GRIP1 containing all three NR-boxes, used as GST-fusion (protein)
chain: QNSPVNMNPPPLSKMGSLDSKDCFGLYGEPSEGTTGQAEASCHPEEQKGPNDSSMPQAASGDRAEGHSRLHDSKGQTKLLQLLTTKSDQMEPSPLPSSLSDTNKDSTGSLPGPGSTHGTSLKEKHKILHRLLQDSSSPVDLAKLTAEATGKELSQESSSTAPGSEVTVKQEPASPKKKENALLRYLLDKDDTKDIGLPEITPKLEHHHHHH
modifications: left off: a dimerising Fc or GST
notes: fragment of GRIP1 containing all three NR-boxes, used as GST-fusion
- binding of TR to GST-GRIP1 (563-767) fragment (hTRβ LBD [2]; NR-box hydrophobic residues replaced with alanine where mutant): strongly binds TR
- affinity of GR for GRIP1 (563-767) relative to a comparable amount of TR (GR): about one-fifth
- binding of GR to GRIP1 fragment (GR): found to bind

B3: GRIP1 (563-1121): GRIP1 (563-767) extended to residue 1121, GST fragment (protein)
chain: QNSPVNMNPPPLSKMGSLDSKDCFGLYGEPSEGTTGQAEASCHPEEQKGPNDSSMPQAASGDRAEGHSRLHDSKGQTKLLQLLTTKSDQMEPSPLPSSLSDTNKDSTGSLPGPGSTHGTSLKEKHKILHRLLQDSSSPVDLAKLTAEATGKELSQESSSTAPGSEVTVKQEPASPKKKENALLRYLLDKDDTKDIGLPEITPKLERLDSKTDPASNTKLIAMKTVKEEVSFEPSDQPGSELDNLEEILDDLQNSQLPQLFPDTRPGAPTGSVDKQAIINDLMQLTADSSPVPPAGAQKAALRMSQSTFNNPRPGQLGRLLPNQNLPLDITLQSPTGAGPFPPIRNSSPYSVIPQPGMMGNQGMLGSQGNLGNNSTGMIGSSTSRPSMPSGEWAPQSPAVRVTCAATTGAMNRPVQGGMIRNPTASIPMRANSQPGQRQMLQSQVMNIGPSELEMNMGGPQYNQQQAPPNQTAPWPESILPIDQASFASQNRQPFGSSPDDLLCPHPAAESPSDEGALLDQLYLALRNFDGLEEIDRALGIPELVSQSQAVDAEQFSSQE
modifications: left off: a dimerising Fc or GST
notes: GRIP1 (563-767) extended to residue 1121, GST fragment
- increase of binding to GR on extension of GRIP1 (563-767) to residue 1121 (GR): about 3 fold
- increase of binding of GR to GRIP1 (563-1121) in the absence of ligand (GR; GR deletion mutant lacking N-terminal AF-1 versus full length GR, no ligand): about 10 fold
